From the supplement of paper PMC6755084

B1: F1*; the commonest letter at each place (parent)
chain: GAGACCGCAACTGAAAAGTTGTTATCACTTGTCGTAAGACACTTTGGATGGGTTGAAGTTCTGCACGTAGAAGCAAAAGGC

Variants of: B1
Test: fraction ligated after 30 min (ligated reads / total reads); higher = more ligase activity
Settings: with F1*sub RNA substrate (template-directed ligation), 42 °C
In short: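 Ribozyme variants were transcribed with T7 from PCR-amplified oligo-pool templates and gel-purified. Ligated and unligated bands, separated on gel, were reverse transcribed with barcoded primers and sequenced on a MiSeq, with core bases filtered at quality ≥20. Fraction ligated per variant was computed as ligated reads divided by total reads.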

Going from GAGACCGCAACTGAAAAGTTGTTATCACTTGTCGTAAGAAACTTTAGATGGGTTGAAGTTCTGCACGTAGAAGCAAAAGGC [C40A G46A] to GAGACCGCAACTGAAAAGTTGTTATCACTTGTCGTAAGAAACTTTTGATGGGTTGAAGTTCTGCACGTAGAAGCAAAAGGC [C40A G46T], the fraction ligated falls from 0.819 to 0.792.

Going from GAGACCGCAACTGAAAAGTTGTTATCACTTGTCGTAAGAAACTTTCGATGGGTTGAAGTTCTGCACGTAGAAGCAAAAGGC [C40A G46C] to GAGACCGCAACTGAAAAGTTGTTATCACTTGTCGTAAGAGGCTTTGGATGGGTTGAAGTTCTGCACGTAGAAGCAAAAGGC [C40G A41G], the fraction ligated falls from 0.817 to 0.807.

Compared with GAGACCGCAACTGAAAAGTTGTTATCACTTGTCGTAAGAGCCTTTGGATGGGTTGAAGTTCTGCACGTAGAAGCAAAAGGC [C40G A41C], GAGACCGCAACTGAAAAGTTGTTATCACTTGTCGTAAGAGTCTTTGGATGGGTTGAAGTTCTGCACGTAGAAGCAAAAGGC [C40G A41T] is lower in fraction ligated: 0.784 for the first, 0.768 for the second.

Compared with GAGACCGCAACTGAAAAGTTGTTATCACTTGTCGTAAGAAACTTTGTATGGGTTGAAGTTCTGCACGTAGAAGCAAAAGGC [C40A G47T], GAGACCGCAACTGAAAAGTTGTTATCACTTGTCGTAAGAAACTTTGCATGGGTTGAAGTTCTGCACGTAGAAGCAAAAGGC [C40A G47C] is lower in fraction ligated: 0.341 for the first, 0.25 for the second.

Compared with GAGACCGCAACTGAAAAGTTGTTATCACTTGTCGTAAGAAACTTTGAATGGGTTGAAGTTCTGCACGTAGAAGCAAAAGGC [C40A G47A], GAGACCGCAACTGAAAAGTTGTTATCACTTGTCGTAAGAAACTTTGGATAGGTTGAAGTTCTGCACGTAGAAGCAAAAGGC [C40A G50A] is lower in fraction ligated: 0.769 for the first, 0.212 for the second.

First: GAGACCGCAACTGAAAAGTTGTTATCACTTGTCGTAAGAAACTTTGGATCGGTTGAAGTTCTGCACGTAGAAGCAAAAGGC [C40A G50C]
Second: GAGACCGCAACTGAAAAGTTGTTATCACTTGTCGTAAGAAACTTTGGATTGGTTGAAGTTCTGCACGTAGAAGCAAAAGGC [C40A G50T]
The fraction ligated of the first is lower: 0.123 for the first, 0.488 for the second.

First: GAGACCGCAACTGAAAAGTTGTTATCACTTGTCGTAAGAAACTTTGGATGGGTTTAAGTTCTGCACGTAGAAGCAAAAGGC [C40A G55T]
Second: GAGACCGCAACTGAAAAGTTGTTATCACTTGTCGTAAGAAACTTTGGATGGGTTAAAGTTCTGCACGTAGAAGCAAAAGGC [C40A G55A]
The fraction ligated of the first is lower: 0.787 for the first, 0.807 for the second.

First: GAGACCGCAACTGAAAAGTTGTTATCACTTGTCGTAAGAAACTTTGGATGGGTTCAAGTTCTGCACGTAGAAGCAAAAGGC [C40A G55C]
Second: GAGACCGCAACTGAAAAGTTGTTATCACTTGTCGTAAGAGACTTTGGCTGGGTTGAAGTTCTGCACGTAGAAGCAAAAGGC [C40G A48C]
The fraction ligated of the first is lower: 0.504 for the first, 0.768 for the second.

Compared with GAGACCGCAACTGAAAAGTTGTTATCACTTGTCGTAAGAGACTTTGGGTGGGTTGAAGTTCTGCACGTAGAAGCAAAAGGC [C40G A48G], GAGACCGCAACTGAAAAGTTGTTATCACTTGTCGTAAGAGACTTTGGTTGGGTTGAAGTTCTGCACGTAGAAGCAAAAGGC [C40G A48T] is lower in fraction ligated: 0.786 for the first, 0.715 for the second.

Going from GAGACCGCAACTGAAAAGTTGTTATCACTTGTCGTAAGAAACTTTGGAGGGGTTGAAGTTCTGCACGTAGAAGCAAAAGGC [C40A T49G] to GAGACCGCAACTGAAAAGTTGTTATCACTTGTCGTAAGAAACTTTGGAAGGGTTGAAGTTCTGCACGTAGAAGCAAAAGGC [C40A T49A], the fraction ligated falls from 0.674 to 0.517.

First: GAGACCGCAACTGAAAAGTTGTTATCACTTGTCGTAAGAAACTTTGGACGGGTTGAAGTTCTGCACGTAGAAGCAAAAGGC [C40A T49C]
Second: GAGACCGCAACTGAAAAGTTGTTATCACTTGTCGTAAGAAACTATGGATGGGTTGAAGTTCTGCACGTAGAAGCAAAAGGC [C40A T44A]
The fraction ligated of the first is lower: 0.116 for the first, 0.823 for the second.

Going from GAGACCGCAACTGAAAAGTTGTTATCACTTGTCGTAAGAAACTCTGGATGGGTTGAAGTTCTGCACGTAGAAGCAAAAGGC [C40A T44C] to GAGACCGCAACTGAAAAGTTGTTATCACTTGTCGTAAGAAACTGTGGATGGGTTGAAGTTCTGCACGTAGAAGCAAAAGGC [C40A T44G], the fraction ligated falls from 0.794 to 0.779.

Going from GAGACCGCAACTGAAAAGTTGTTATCACTTGTCGTAAGAAACCTTGGATGGGTTGAAGTTCTGCACGTAGAAGCAAAAGGC [C40A T43C] to GAGACCGCAACTGAAAAGTTGTTATCACTTGTCGTAAGAAACATTGGATGGGTTGAAGTTCTGCACGTAGAAGCAAAAGGC [C40A T43A], the fraction ligated rises from 0.768 to 0.856.

Compared with GAGACCGCAACTGAAAAGTTGTTATCACTTGTCGTAAGAAACGTTGGATGGGTTGAAGTTCTGCACGTAGAAGCAAAAGGC [C40A T43G], GAGACCGCAACTGAAAAGTTGTTATCACTTGTCGTAAGAAACTTCGGATGGGTTGAAGTTCTGCACGTAGAAGCAAAAGGC [C40A T45C] is lower in fraction ligated: 0.801 for the first, 0.358 for the second.

Compared with GAGACCGCAACTGAAAAGTTGTTATCACTTGTCGTAAGAAACTTAGGATGGGTTGAAGTTCTGCACGTAGAAGCAAAAGGC [C40A T45A], GAGACCGCAACTGAAAAGTTGTTATCACTTGTCGTAAGAAACTTGGGATGGGTTGAAGTTCTGCACGTAGAAGCAAAAGGC [C40A T45G] is lower in fraction ligated: 0.66 for the first, 0.0271 for the second.

Going from GAGACCGCAACTGAAAAGTTGTTATCACTTGTCGTAAGAGACTTTGGATGGGTTGTAGTTCTGCACGTAGAAGCAAAAGGC [C40G A56T] to GAGACCGCAACTGAAAAGTTGTTATCACTTGTCGTAAGAGACTTTGGATGGGTTGCAGTTCTGCACGTAGAAGCAAAAGGC [C40G A56C], the fraction ligated falls from 0.805 to 0.784.

Going from GAGACCGCAACTGAAAAGTTGTTATCACTTGTCGTAAGAGACTTTGGATGGGTTGGAGTTCTGCACGTAGAAGCAAAAGGC [C40G A56G] to GAGACCGCAACTGAAAAGTTGTTATCACTTGTCGTAAGAGACTTTGGATGGGTTGAAGTTCTGCACGTAGAAGCAAAAGGC [C40G], the fraction ligated rises from 0.766 to 0.816.
